Measurements reported in patent publication US20240109958A1.
Numbering of substitutions follows the chain as printed.

B1: anti-GGX monoclonal antibody 2E9 (rabbit IgG) (antibody, V domains shown)
VH: QKQLMESGGRLVTPGTPLTLTCKVSGFSLSSYYMNWVRQAPGKGLEWIGIMFPNGKIYYATWAKGRFTISKTSTTVDLKIISPTTEDTATYFCTGDDSGDVNIWGPGTLVTVSS
VL: DIVLTQTASPVSAAVGGTVTINCQSSQSVYTNNRLAWYQQKPGQPAKEMIYGASTLPSGVSSRFKGSGSGTQFALTISDVQCDDAATYYCLGEFDCTSADCFVFGGGTEVVVKG
B2: anti-GGX monoclonal antibody 2H2 (rabbit IgG) (antibody, V domains shown)
VH: QSVEESRGRLVTPGTPLTLTCKVSGFSLSSYYMNWVRQAPGKGLEWIGIMFPNGKIYYATWAKGRFTISKTSTTVDLKIISPTTEDTATYFCTGDDSGDVNIWGPGTLVTVSS
VL: B1 VL with I2P, V3M, T31S, A46P, A74T, E93T, F94Y, T97L, F102L, V103A
B3: anti-GGX monoclonal antibody 2B12 (rabbit IgG) (antibody, V domains shown)
VH: QSVEESGGGLVTPGGALTLTCTASGFSLNRHWMNWVRQAPGKGLEWIGAINESGRTYYATWAKGRFFISKTTTTVDLKITSPTTADTATYFCVRDDDVSNFWGPGTLVTVSS
VL: DPMLTQTPSSVSAAVGGTVSINCQSTKSVYKYNHLSWYQQKPGQPPKQLIFPASTLQSGVPSRFSGSGSGTQFTLTISDVQCDDAATYYCLGLYDCRSGDCNVFGGGTKLEIKG

Target: internal GGX peptides (genome-encoded GGX sequences exposed by trypsin digestion of HEK293 lysate)
Experiment: immunoaffinity enrichment from trypsin-digested HEK293 lysate, LC-MS/MS; count of internal GGX sequences enriched

How did the Shared sequences turn out when B1 was run?
The Shared sequences was 14 sequences.

And the Unique sequences?
The Unique sequences was 41 sequences.

Which Shared sequences does the source give for B2 here?
Its Shared sequences is 20 sequences.

What about the Unique sequences of the same binder?
Its Unique sequences is 47 sequences.

Which results are given for B3?
Shared sequences: 8 sequences; Unique sequences: 8 sequences
